For assay [1], the target named is human CD45 on PBMCs (human) (UniProt P08575). The assay can be described thus: flow cytometry on human PBMCs, detected with anti-PEG/HL647 label. Background: In flow cytometry, cells or beads pass a laser one at a time.
The target of assay [2] is human CD3 cell surface antigen on PBMCs (human) (UniProt P07766). The assay can be described thus: flow cytometry on human PBMCs, detected with rat anti-mouse PE.
Assay [3] deals with anti-pHIS antibody (clone J099B12, Biolegend), fluorescently labeled with AlexaFluor 488. Briefly: flow cytometry competition, inhibition format: soluble pHIS preincubated with anti-pHIS antibody before pHIS-conjugated particles.
In assay [4] the target is anti-pHIS/CD3 TAC (tetrameric antibody complex of anti-pHIS antibody and anti-CD3 antibody). The assay can be described thus: cell-based or functional assay.
Assay [5] addresses anti-pHIS antibody (clone J099B12, Biolegend), fluorescently labeled with AlexaFluor 488. The assay can be described thus: flow cytometry competition, release format: soluble pHIS added after anti-pHIS antibody was bound to pHIS-conjugated particles.
Assay [6] deals with human CD3 cell surface antigen on PBMCs (human) (UniProt P07766). The assay can be described thus: flow cytometry on human PBMCs, detected with anti-PEG/HL647 label.

UniProt P07766, sequence (P07766 23-207): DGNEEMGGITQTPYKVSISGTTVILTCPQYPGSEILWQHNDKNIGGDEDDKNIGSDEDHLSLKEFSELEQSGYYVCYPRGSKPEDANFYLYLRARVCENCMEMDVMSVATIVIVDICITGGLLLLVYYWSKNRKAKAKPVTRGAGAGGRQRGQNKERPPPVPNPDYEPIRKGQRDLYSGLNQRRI
UniProt P08575, sequence (P08575 26-1306): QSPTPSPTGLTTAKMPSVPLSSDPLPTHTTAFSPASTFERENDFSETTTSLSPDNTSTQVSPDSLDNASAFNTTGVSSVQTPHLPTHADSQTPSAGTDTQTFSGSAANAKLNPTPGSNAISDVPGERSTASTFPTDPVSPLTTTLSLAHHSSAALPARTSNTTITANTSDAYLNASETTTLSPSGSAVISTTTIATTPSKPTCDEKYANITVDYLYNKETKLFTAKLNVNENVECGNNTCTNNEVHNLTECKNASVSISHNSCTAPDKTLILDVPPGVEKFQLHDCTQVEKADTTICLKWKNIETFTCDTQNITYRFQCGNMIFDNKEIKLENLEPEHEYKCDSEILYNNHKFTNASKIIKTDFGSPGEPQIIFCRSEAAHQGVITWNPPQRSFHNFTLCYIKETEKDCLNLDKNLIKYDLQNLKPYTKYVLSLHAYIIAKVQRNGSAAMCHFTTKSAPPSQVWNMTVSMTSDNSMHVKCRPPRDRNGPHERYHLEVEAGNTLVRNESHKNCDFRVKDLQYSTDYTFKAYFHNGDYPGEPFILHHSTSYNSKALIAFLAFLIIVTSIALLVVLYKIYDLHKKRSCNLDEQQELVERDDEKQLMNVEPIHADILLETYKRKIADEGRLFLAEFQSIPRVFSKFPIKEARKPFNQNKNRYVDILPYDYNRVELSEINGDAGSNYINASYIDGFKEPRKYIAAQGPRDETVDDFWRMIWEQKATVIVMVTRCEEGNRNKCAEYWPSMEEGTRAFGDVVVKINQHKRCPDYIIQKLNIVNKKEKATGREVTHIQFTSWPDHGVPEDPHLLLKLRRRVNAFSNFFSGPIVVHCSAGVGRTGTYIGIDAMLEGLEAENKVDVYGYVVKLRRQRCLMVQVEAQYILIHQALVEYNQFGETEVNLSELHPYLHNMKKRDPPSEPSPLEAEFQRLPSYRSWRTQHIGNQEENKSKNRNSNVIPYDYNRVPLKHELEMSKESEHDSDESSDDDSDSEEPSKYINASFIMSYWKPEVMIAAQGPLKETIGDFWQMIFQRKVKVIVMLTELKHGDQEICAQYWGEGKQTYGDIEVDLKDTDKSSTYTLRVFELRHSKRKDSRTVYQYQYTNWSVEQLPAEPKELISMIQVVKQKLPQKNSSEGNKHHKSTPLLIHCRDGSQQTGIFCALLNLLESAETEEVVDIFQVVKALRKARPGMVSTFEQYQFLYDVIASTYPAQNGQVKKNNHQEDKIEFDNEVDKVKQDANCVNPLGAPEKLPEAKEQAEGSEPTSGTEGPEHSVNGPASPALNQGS

“CD45 antibody (clone MEM-28) PEGylated with 30 kDa PEG”: in assay [1], the percent of cells with a positive signal was more than 96%. Consider CD3 antibody (clone UCHT1), for which the percent of lymphocytes with a CD3+ signal in assay [2] is 87.8%. With “soluble pHIS (polyhistidine) peptide, 0.84 kDa”, the IC50 – broadly, the concentration at which inhibition is half-maximal – in assay [3] stood at 1.9 µM; in assay [5] it was 237 µM. Further, in assay [4], the % Rel (release efficiency), average, n = 2 worked out at 69.3%. In addition, the particle release efficiency in assay [4] was 72%. “CD3 antibody (clone UCHT1) PEGylated with 30 kDa PEG” had a percent of cells with a positive signal in assay [6] of 83.4%.

For the origin of these results see patent US20190178879A1.
